This series has as its target P02671. Put plainly: SEC-MALS.

Consider 1 protein from paper doi:10.1101/432138.

B1: Fib1 fibrinogen (protein)
chain 1: GPRVVERHQSACKDSDWPFCSDEDWNYKCPSGCRMKGLIDEVNQDFTNRINKLKNSLFEYQKNNKDSHSLTTNIMEILRGDFSSANNRDNTYNRVSEDLRSRIEVLKRKVIEKVQHIQLLQKNVRAQLVDMKRLEVDIDIKIRSCRGSCSRALAREVDLKDYEDQQKQLEQVIAKDLLPSRDRQHLPLIKMKPVPDLVPGNFKSQLQKVPPEWKALTDMPQMRMELERPGGNEITRGGSTSYGTGSETESPRNPSSAGSWNSGSSGPGSTGNRNPGSSGTGGTATWKPGSSGPGSTGSWNSGSSGTGSTGNQNPGSPRPGSTGTWNPGSSERGSAGHWTSESSVSGSTGQWHSESGSFRPDSPGSGNARPNNPDWGTFEEVSGNVSPGTRREYHTEKLVTSKGDKELRTGKEKVTSGSTTTTRRSCSKTVTKTVIGPDGHKEVTKEVVTSEDGSDCPEAMDLGTLSGIGTLDGFRHRHPDEAAFFDTASTGKTFPGFFSPMLGEFVSETESRGSESGIFTNTKESSSHHPGIAEFPSRGKSSSYSKQFTSSTSYNRGDSTFESKSYKMADEAGSEADHEGTHSTKRGHAKSRPVRDCDDVLQTHPSGTQSGIFNIKLPGSSKIFSVYCDQETSLGGWLLIQQRMDGSLNFNRTWQDYKRGFGSLNDEGEGEFWLGNDYLHLLTQRGSVLRVELEDWAGNEAYAEYHFRVGSEAEGYALQVSSYEGTAGDALIEGSVEEGAEYTSHNNMQFSTFDRDADQWEENCAEVYGGGWWYNNCQAANLNGIYYPGGSYDPRNNSPYEIENGVVWVSFRGADYSLRAVRMKIRPLVTQ
chain 2: GHRPLDKKREEAPSLRPAPPPISGGGYRARPAKAAATQKKVERKAPDAGGCLHADPDLGVLCPTGCQLQEALLQQERPIRNSVDELNNNVEAVSQTSSSSFQYMYLLKDLWQKRQKQVKDNENVVNEYSSELEKHQLYIDETVNSNIPTNLRVLRSILENLRSKIQKLESDVSAQMEYCRTPCTVSCNIPVVSGKECEEIIRKGGETSEMYLIQPDSSVKPYRVYCDMNTENGGWTVIQNRQDGSVDFGRKWDPYKQGFGNVATNTDGKNYCGLPGEYWLGNDKISQLTRMGPTELLIEMEDWKGDKVKAHYGGFTVQNEANKYQISVNKYRGTAGNALMDGASQLMGENRTMTIHNGMFFSTYDRDNDGWLTSDPRKQCSKEDGGGWWYNRCHAANPNGRYYWGGQYTWDMAKHGTDDGVVWMNWKGSWYSMRKMSMKIRPFFPQQ
chain 3: YVATRDNCCILDERFGSYCPTTCGIADFLSTYQTKVDKDLQSLEDILHQVENKTSEVKQLIKAIQLTYNPDESSKPNMIDAATLKSRKMLEEIMKYEASILTHDSSIRYLQEIYNSNNQKIVNLKEKVAQLEAQCQEPCKDTVQIHDITGKDCQDIANKGAKQSGLYFIKPLKANQQFLVYCEIDGSGNGWTVFQKRLDGSVDFKKNWIQYKEGFGHLSPTGTTEFWLGNEKIHLISTQSAIPYALRVELEDWNGRTSTADYAMFKVGPEADKYRLTYAYFAGGDAGDAFDGFDFGDDPSDKFFTSHNGMQFSTWDNDNDKFEGNCAEQDGSGWWMNKCHAGHLNGVYYQGGTYSKASTPNGYDNGIIWATWKTRWYSMKKTTMKIIPFNRLTIGEGQQHHLGGAKQVRPEHPAETEYDSLYPEDDL
With B1, the “relative mass of the aggregates” value is recorded as “about 4% of the total mass of fibrinogen”.
